From patent US20200055930A1 (Pfizer, published 2020)
Numbering of substitutions follows the chain as printed. Values joined by “and” are separate entries in the source; they are usually repeats but may differ in a detail not shown here. Equal entries are not always repeated.

Assays:
[1] = target: Mouse Fc-mouse GDF15 (Mu IgG1Fc_Fxa_Mu GDF15) (mouse (GDF15 part)); assay: SPR BIAcore T200 37C; Fc-GDF15 captured, monomeric Fc-Fab analyte; murine GDF15 ligand (Mu IgG1Fc_Fxa_Mu GDF15), first run
[2] = target: Mouse Fc-mouse GDF15 (Mu IgG1Fc_Fxa_Mu GDF15) (mouse (GDF15 part)); assay: SPR BIAcore T200 37C; Fc-GDF15 captured, monomeric Fc-Fab analyte
[3] = target: T1, Mouse Fc-cynomolgus monkey GDF15 (Mu IgG1Fc_Fxa_Cyno GDF15) (cynomolgus monkey (GDF15 part)); assay: as above
T1 construct: Whole fusion entry; also called Murine dimeric IgG1 Fc-cyno GDF-15 with FXa cleavage site
T1 chain: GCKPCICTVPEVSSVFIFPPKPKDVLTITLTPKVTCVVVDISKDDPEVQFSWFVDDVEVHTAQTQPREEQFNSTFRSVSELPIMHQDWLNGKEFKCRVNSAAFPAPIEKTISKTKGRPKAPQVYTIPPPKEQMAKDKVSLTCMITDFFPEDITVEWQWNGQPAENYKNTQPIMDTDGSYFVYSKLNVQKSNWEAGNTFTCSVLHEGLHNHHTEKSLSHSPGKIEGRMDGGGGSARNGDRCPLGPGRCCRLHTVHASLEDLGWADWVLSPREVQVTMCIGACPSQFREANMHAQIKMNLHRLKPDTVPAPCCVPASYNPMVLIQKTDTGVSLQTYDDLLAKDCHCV
Text: (§1) To understand the KD value, without the avidity effect, of GDF15_001 binding to GDF15, monomeric Fc-Fab was produced and tested in the same assay used in Example 2. […] Mu IgG1Fc_Fxa_Hu GDF15, Mu IgG1Fc_Fxa_Mu GDF15 and Mu IgG1Fc_Fxa_Cyno GDF15 were captured onto three different flow cells of a CM4 sensorchip (catalogue number BR100534, GE Healthcare) surface using the Mouse Antibody Capture Kit (BR100838, GE Healthcare) according to the manufacturer's protocol. The running and sample buffer was 10 mM HEPES pH 7.4, 0.15M NaCl, 3 mM EDTA, 0.05% P-20 (HBS-EP+). The final capture levels of Mu IgG1Fc_Fxa_Hu GDF15, Mu IgG1Fc_Fxa_Mu GDF15 and Mu IgG1Fc_Fxa_Cyno GDF15 were 19 resonance units (RU), 22 RU and 19 RU respectively. Flow cell 1 was used as a reference flow cell. […] The dissociation was monitored for 1200 seconds and the surface was regenerated with 10 mM Glycine pH 1.7. Binding affinities and rate constants were determined by fitting the resulting sensorgram data to a 1:1 Langmuir model in BIAcore T200 Evaluation software version 2.0 (GE Healthcare).

[4] = target: T2, Mouse Fc-human GDF15 (Mu IgG1Fc_Fxa_Hu GDF15) (human (GDF15 part)); assay: as above
T2 construct: Whole fusion entry; also called Murine dimeric IgG1 Fc-human GDF-15 with FXa cleavage site; control human GDF15
T2 chain: T1 chain with R239H, H254R, E287A, M296T, N297S, V345I
Text: as §1

[5] = target: Mouse Fc-mouse GDF15 (Mu IgG1Fc_Fxa_Mu GDF15) (mouse (GDF15 part)); assay: SPR BIAcore T200 37C; Fc-GDF15 captured, monomeric Fc-Fab analyte; average
[6] = target: Mouse Fc-mouse GDF15 (Mu IgG1Fc_Fxa_Mu GDF15) (mouse (GDF15 part)); assay: SPR BIAcore T200 37C; Fc-GDF15 captured, monomeric Fc-Fab analyte; murine GDF15 ligand (Mu IgG1Fc_Fxa_Mu GDF15), second run
[7] = target: T2, Mouse Fc-human GDF15 (Mu IgG1Fc_Fxa_Hu …); assay: SPR BIAcore T200 37C; Fc-GDF15 captured, IgG analyte
Protocol: Mouse Fc-human GDF15 (Mu IgG1Fc_Fxa_Hu GDF15; SEQ ID NO:2), Mouse Fc-mouse GDF15 (Mu IgG1Fc_Fxa_Mu GDF15; SEQ ID NO:5) and Mouse Fc-cynomolgus monkey GDF15 (Mu IgG1Fc_Fxa_Cyno GDF15; SEQ ID NO:4) were captured onto three different flow cells of a CM4 sensorchip (catalogue number BR100534, GE Healthcare) surface using the Mouse Antibody Capture Kit (BR100838, GE Healthcare) according to the manufacturer's protocol. The running and sample buffer was 10 mM HEPES pH 7.4, 0.15M NaCl, 3 mM EDTA, 0.05% P-20 (HBS-EP+). The final capture levels of Mu IgG1Fc_Fxa_Hu GDF15, Mu IgG1Fc_Fxa_Mu GDF15 and Mu IgG1Fc_Fxa_Cyno GDF15 were 40 resonance units (RU), 32 RU and 25 RU respectively. Flow cell 1 was used as a reference flow cell. […] The dissociation was monitored for 2.8 hours and the surface was regenerated with 10 mM Glycine pH 1.7. Binding affinities and rate constants were determined for murine and cynomolgus monkey GDF15 by fitting the resulting sensorgram data to a 1:1 Langmuir model in BIAcore T200 Evaluation software version 2.0 (GE Healthcare). […]

[8] = target: T2, Mouse Fc-human GDF15 (Mu IgG1Fc_Fxa_Hu …); assay: SPR BIAcore T200 37C; Fc-GDF15 captured, IgG analyte; same run as printed in Table 6 (the 8th table r7)
Protocol: (§2) Mouse Fc-human GDF15 (Mu IgG1Fc_Fxa_Hu GDF15; SEQ ID NO:2), Mouse Fc-mouse GDF15 (Mu IgG1Fc_Fxa_Mu GDF15; SEQ ID NO:5) and Mouse Fc-cynomolgus monkey GDF15 (Mu IgG1Fc_Fxa_Cyno GDF15; SEQ ID NO:4) were captured onto three different flow cells of a CM4 sensorchip (catalogue number BR100534, GE Healthcare) surface using the Mouse Antibody Capture Kit (BR100838, GE Healthcare) according to the manufacturer's protocol. The running and sample buffer was 10 mM HEPES pH 7.4, 0.15M NaCl, 3 mM EDTA, 0.05% P-20 (HBS-EP+). The final capture levels of Mu IgG1Fc_Fxa_Hu GDF15, Mu IgG1Fc_Fxa_Mu GDF15 and Mu IgG1Fc_Fxa_Cyno GDF15 were 40 resonance units (RU), 32 RU and 25 RU respectively. Flow cell 1 was used as a reference flow cell. […] The dissociation was monitored for 2.8 hours and the surface was regenerated with 10 mM Glycine pH 1.7. Binding affinities and rate constants were determined for murine and cynomolgus monkey GDF15 by fitting the resulting sensorgram data to a 1:1 Langmuir model in BIAcore T200 Evaluation software version 2.0 (GE Healthcare).
(§3) Additionally, the binding of clone GDF15_001 to cynomolgus monkey and mouse GDF15 was measured using above mentioned BIAcore assay (Table 7).

[9] = target: T2, Mouse Fc-human GDF15 (Mu IgG1Fc_Fxa_Hu …); assay: SPR BIAcore T200 37C; Fc-GDF15 captured, IgG analyte; same run as printed in Table 6 (the 8th table r8)
Protocol: as §2, §3

[10] = target: T2, Mouse Fc-human GDF15 (Mu IgG1Fc_Fxa_Hu …); assay: SPR BIAcore T200 37C; Fc-GDF15 captured, IgG analyte; same run as printed in Table 6 (the 8th table r9)
Protocol: as §2, §3

[11] = target: T1, Mouse Fc-cynomolgus monkey GDF15 (Mu …); assay: SPR BIAcore T200 37C; Fc-GDF15 captured, IgG analyte
Protocol: as §2, §3

B1: monomeric GDF15_001 (Fab, V domains shown)
VH: QVQLVQSGAEVKKPGSSVKVSCKASGYTFSSYNIDWVRQAPGQGLEWMGGINPIFGTAFYNQKFQGRVTITADESTSTAYMELSSLRSEDTAVYYCAREAITTVGAMDHWGQGTLVTVSS
VL: EIVLTQSPATLSLSPGERATLSCRTSQSVHNYLAWYQQKPGQAPRLLIYDASTRADGIPARFSGSGSGTDFTLTISSLEPEDFAVYYCQQFWSWPWTFGQGTKVEIK
notes: only the variable domains of GDF15_001 are tied to it; also called CH23LS-GDF15_001; CH23LS-GBT-GDF15_001
Kd [1]: 2.11 nM | T½ [2]: 3.39 min and 3.73 min | koff [2]: 0.00341 s⁻¹ and 0.0031 s⁻¹ | kon [2]: 1.62e+06 M⁻¹ s⁻¹ and 1.7e+06 M⁻¹ s⁻¹ | T½ [3]: 2.57 h and 2.05 h | T½ [4]: 8.54 h and 4.2 h | Kd [5]: 1.97 nM | koff [5]: 0.00326 s⁻¹ | kon [5]: 1.66e+06 M⁻¹ s⁻¹ | Kd [6]: 1.82 nM

B2: GDF15_014 (antibody, human IgG1, kappa, V domains shown)
VH: B1 VH with G50Q, F55N, T57L, H109Y
VL: EIVLTQSPATLSLSPGERATLSCRTSQNVHNYLAWYQQKPGQAPRLLIYDASNRATGIPARFSGSGSGTDFTLTISSLEPEDFAVYYCQQFWSDPYTFGQGTKVEIKR
notes: Tested in bivalent format
T½ [7]: 10.7 h and 13 h

B3: GDF15_001 (antibody, human IgG1, kappa, V domains shown)
VH: B1 VH
VL: B2 VL with N28S, N53T, T56D, D94W, Y96W
notes: Bivalent IgG1/kappa; also called clone GDF15_001; anti-GDF15_001
T½ [7]: 40.3 h and 20.9 h and 30.8 h | T½ [8]: 20.9 h | T½ [9]: 30.8 h | T½ [10]: 40.3 h | T½ [11]: 14.8 h and 15.5 h and 18.7 h

B4: GDF15_003 (antibody, human IgG1, kappa, V domains shown)
VH: B1 VH with S30T, G50Q, I54N, F55N, T57L, A100Q, H109Y
VL: B2 VL with T25A, N28S, V29L, H30S, N31S, S52K, T56D, W92S
notes: Tested in bivalent format
T½ [7]: 2.67 h and 2.1 h

B5: GDF15_004 (antibody, human IgG1, kappa, V domains shown)
VH: B1 VH with G50Q, I54N, F55N, T57L, F59N, N61A, V104I, H109Y
VL: B2 VL with Q27E, N28S, N31S, N53T, T56D
notes: Tested in bivalent format
T½ [7]: 2.7 h and 2.35 h

B6: GDF15_010 (antibody, human IgG1, kappa, V domains shown)
VH: B1 VH with S31D, I54N, F55N, T57L, Y60F, H109Y
VL: B2 VL with N28S, V29L, N31S, S93N, Y96W
notes: Tested in bivalent format
T½ [7]: 13.1 h and 10.8 h

B7: GDF15_013 (antibody, human IgG1, kappa, V domains shown)
VH: B1 VH with S31D, I34M, I54N, F55N, T57L, H109Y
VL: B2 VL with Q27E, N28S, N31S, S93N, D94W, Y96W
notes: Tested in bivalent format
T½ [7]: 2.89 h and 2.56 h

B8: GDF15_015 (antibody, human IgG1, kappa, V domains shown)
VH: B1 VH with S31D, I34M, G50Q, I54N, F55N, T57L, M107T, H109Y
VL: B2 VL with N31S, R54L, T56D, W92S, S93N, Y96W
notes: Tested in bivalent format
T½ [7]: 1.94 h and 1.86 h

B9: GDF15_017 (antibody, human IgG1, kappa, V domains shown)
VH: B1 VH with S30T, S31D, G50Q, I54N, F55N, T57L, T91N, H109Y
VL: B2 VL with N28S, N31S, S52K, N53T, W92S
notes: Tested in bivalent format
T½ [7]: 2.35 h and 2.22 h

B10: GDF15_020 (antibody, human IgG1, kappa, V domains shown)
VH: B1 VH with S31D, I34M, G50Q, I54N, F55N, T57L, F59N, H109Y
VL: B2 VL with T25A, V29L, N31S, N53T, T56D
notes: Tested in bivalent format
T½ [7]: 2.03 h and 1.7 h

B11: GDF15_021 (antibody, human IgG1, kappa, V domains shown)
VH: B1 VH with F55N, T57L, A58I, Y60F
VL: B2 VL with Q27E, N31S, R54L, T56D
notes: Tested in bivalent format
T½ [7]: 0.661 h and 0.547 h

B12: GDF15_022 (antibody, human IgG1, kappa, V domains shown)
VH: B1 VH with S31D, G50Q, I54N, F55N, T57L, A58I, Y60F, A100V, H109Y
VL: B2 VL with N28S, N31S, S52K, N53T, T56D, W92S
notes: Tested in bivalent format
T½ [7]: 10.9 h and 13.3 h

B13: GDF15_0297 (antibody, mouse IgG1, kappa, V domains shown)
VH: QVQLQQPGAELVKPGASVKMSCKASGYPFEGWYIHWVKQRPGQGLEWMGWNNPRTGLTNHAQKFQGKVTMTRDTSSSTAYMQLSSLTSEDSAVYYCARGVGADAAFDIWGQGTTLTVSS
VL: DIVMTQSPSSLSVSAGEKVTMSCRSSQSLLWKHGYNYLDWYQQKPGQPPKLLIYLDRNRAHGVPDRFTGSGSGTDFTLTISSVQAEDLAVYYCMQSFETPITFGGGTKLEIKR
notes: also called GDF15_297; GDF_0297
T½ [7]: 17.7 h and 14.9 h

B14: GDF15_0470 (antibody, human IgG1, kappa, V domains shown)
VH: QVQLVQSGAEVKKPGASVKVSCKASGYPFEGWYIHWVRQAPGQGLEWMGWNNPRTGLTNHAQKFQGRVTMTRDTSISTAYMELSRLRSDDTAVYYCARGVGADAAFDIWGQGTMVTVSS
VL: EIVLTQSPATLSLSPGERATLSCRSSQSLLWKHGYNYLDWYQQKPGQAPRLLIYLDRNRAHGIPARFSGSGSGTDFTLTISSLEPEDFAVYYCMQSFETPITFGQGTKVEIKR
notes: Tested in bivalent format; also called GDF15-470
T½ [7]: 3.7 h and 4.47 h
